Assay [1] addresses T1, recombinant human CFD mutant 1 (R157A, R207A), His-tagged (human, UniProt P00746 26-253).
T1 construct: positions are linear positions in the mature protein; also called rhCFD-mut1-His; Mut1
The experiment in a line: ELISA. On the technique in general: ELISA stands for enzyme-linked immunosorbent assay.

Assay [2] concerns the target T2, human complement factor D purified from serum (human, UniProt P00746 26-253).
T2 construct: serum-purified (CompTech); also called hCFD-Comptech; CFD
The experiment in a line: SPR MX96.

Assay [3] deals with T3, recombinant cynomolgus CFD, His-tagged (cynomolgus).
T3 construct: also called rcyCFD-His; recombinant Cyno-CFD
The experiment in a line: SPR MX96.

The target in assay [4] is T4, recombinant human CFD, His-tagged (human, UniProt P00746 26-253).
T4 construct: also called rhCFD-His
T4 sequence (P00746 26-253 limits assumed): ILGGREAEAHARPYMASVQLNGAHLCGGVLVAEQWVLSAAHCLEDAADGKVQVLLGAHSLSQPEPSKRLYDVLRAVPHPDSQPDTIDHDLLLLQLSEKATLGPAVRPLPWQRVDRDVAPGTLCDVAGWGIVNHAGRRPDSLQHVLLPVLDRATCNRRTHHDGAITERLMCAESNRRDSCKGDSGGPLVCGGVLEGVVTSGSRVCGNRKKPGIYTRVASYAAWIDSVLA
The experiment in a line: SPR MX96.

Assay [5] concerns the target T1, recombinant human CFD mutant 1 (R157A, …). The experiment in a line: SPR MX96.
Assay [6] addresses T2, human complement factor D purified from ….
The target is the same in assay [7]. The experiment in a line: cell-based or functional assay.
Assay [8] addresses T1, recombinant human CFD mutant 1 (R157A, …). The experiment in a line: ELISA. The source holds these as a separate data set.
Assay [9] has as its target T2, human complement factor D purified from …. The source holds these as a separate data set.
Assay [10] shares this target. The experiment in a line: cell-based or functional assay. This is another data set of the same source.

The values below come from patent US20180334496A1 (KODIAK SCIENCES, published 2018).

Residue numbers refer to the chain shown, from its start. Where two headings read alike, the source gives them in different places.

For orientation: Kd means the constant that tells how readily two partners part at equilibrium.
Throughout, for CFD Enzymatic activity (% of Neg Ctrl): test concentration or dose not given here.

T1 sequence (P00746 26-253 R182A/R232A limits assumed): as the sequence (P00746 26-253 limits assumed) above, with R157A, R207A counted along it
T2 sequence (P00746 26-253): as the sequence (P00746 26-253 limits assumed) above

B1: KCD136 (antibody, V domains shown)
VH: EVQLQQSVAELVRPGASVKLSCSASGFNIKNTYMHWVNQRPEQGLEWIGRIDPANGITKYAPNFQGKATITADTSSNTAYLQLSNLTSEDTAIYYCTRAMDYWGQGTSVTVSS
VL: QIVLTQSPAIMSASPGEKVTMTCSASSSVSYMYWYQQKPGSSPRLLIYDISNLASGVPVRFSGSGSGTSYSLTISRMEAEDAATYYCQQWDTYPWTFGGGTKLEIK
notes: chimeric
For the molecule B1, in assay [1], the “Mut1 Binding (% wt)” value was found to be 78.3 % wt. Also, the Kd stood at 4.5 nM in assay [2]; 27 nM in assay [3]; 3.4 nM in assay [4]; 1.4 nM in assay [5]; 0.587 nM in assay [6]. Further, the “CFD Enzymatic activity (% of Neg Ctrl)” value in [7] was 11.8 % of Neg Ctrl.

B2: KCD002 (antibody, V domains shown)
VH: EVKLVESEGGLVQPGSSMKLSCTASGFTFSDYYMAWVRQVPEKGLEWVGNINYDGSSTYYLDSLKSRFIISRDSAKNILYLQMSSLKSEDTATYFCARGEDFYLYAMDYWGQGTSVTVSS
VL: DIQMTQSPASLSASVGETVTITCRASENIHSYLAWYQQKQGKSPQLIVYNTKTLAEGVPSRFSGSGSGTQFSLKINSLQPEDFGSYYCQHHYGIPPTFGGGTKLEIK
notes: chimeric
As to B2, the “Mut1 Binding (% wt)” value in [8] was 71.2 % wt. The Kd was 0.13 nM in assay [2]; 0.41 nM in assay [3]; 0.11 nM in [4]; 0.08 nM in assay [5]; 0.0307 nM in [9]. Moreover, in assay [10], the “CFD Enzymatic activity (% of Neg Ctrl)” value was 144 % of Neg Ctrl.

B3: KCD224 (antibody, V domains shown)
VH: QVQLKESGPGLVAPSQSLSITCTVSGFSLTSYGVDWIRQSPGKGLEWLGVIWGVGSTNYNSALKSRLSISKDNSKSQVFLKMNSLQTDDTAMYYCARSYDGSYWYFDVWGTGTTVTVSS
VL: DIQMTQTTSSLSASLGDRVTISCRASQVISNYLNWYQQKPDGTVKLLIYYTSRLHSGVPSRFSGSGSGTDYSLTISNLEPEDIATYYCQQYSKLPYTFGSGTKLEIK
notes: chimeric
Take B3: in [1], the “Mut1 Binding (% wt)” value turned out to be 121 % wt. Further, the Kd was 1.2 nM in assay [2]; 100 nM in [3]; 0.54 nM in assay [4]; 1.1 nM in [5]; 0.0156 nM in assay [6]. The “CFD Enzymatic activity (% of Neg Ctrl)” value in [7] is 36.3 % of Neg Ctrl.

B4: KCD102 (antibody, V domains shown)
VH: QVQLQQPGAELVRPGTSVKLSCKASGYTFTSYWMHWVKQRPGQGLEWIGVIDPSDSYTNYNQKFKGKATLTVDTSSSTAYMQLSSLTSEDSAVYYCARNGYDGSMDYWGQGTSVTVSS
VL: B3 VL with D1E, V28D, T51P, P80Q, I83F, Y87F, Y91G, S92N, K93T, S100G
notes: chimeric
In the case of B4, the “Mut1 Binding (% wt)” value in assay [8] came to 64.3 % wt. Moreover, the Kd in assay [2] amounted to 3.6 nM; in [3], 230 nM; in assay [4] it was 2.5 nM; in assay [5], 2.5 nM; in assay [9], 6.98 nM. For the same molecule, the “CFD Enzymatic activity (% of Neg Ctrl)” value in assay [10] was 92.3 % of Neg Ctrl.

B5: KCD103 (antibody, V domains shown)
VH: B4 VH with N59K, G66D, D73E, R98G
VL: B3 VL with V28D, Y32S, G57R, E79D, P80Q, Y87F, Y91A, S92N, K93T, S100G
notes: chimeric
Regarding B5, the “Mut1 Binding (% wt)” value in [8] worked out at 65.2 % wt. In addition, the Kd was found to be 4.4 nM in [2]; 63 nM in assay [3]; 3.1 nM in [4]; 2.5 nM in [5]; 1.48 nM in [9]. Also, the “CFD Enzymatic activity (% of Neg Ctrl)” value in assay [10] was 126 % of Neg Ctrl.

B6: KCD101 (antibody, V domains shown)
VH: B4 VH with A97G
VL: B3 VL with V28D, T51P, P80Q, I83F, Y87F, Y91G, S92N, K93T, S100G
notes: chimeric
Take B6: the “Mut1 Binding (% wt)” value in [8] worked out at 65.8 % wt. Also, the Kd in assay [2] came out at 3.8 nM; in assay [3], 240 nM; in assay [4] it was 2.7 nM; in assay [5] it was 2.8 nM; in assay [9], 1.45 nM. Besides, the “CFD Enzymatic activity (% of Neg Ctrl)” value in [10] was 93.2 % of Neg Ctrl.
